Data reported in patent publication US20200277376A1 (SUZHOU STAINWEI BIOTECH, published 2020).

Columns and labels:
[1] = molecular target: recombination human PD-1 extracellular protein (Sino Biological Inc.) (human) (UniProt Q15116); assay: competitive ELISA, plate coated with human PD-1 protein; competitor biotin-hAb21
[2] = molecular target: T1, human PD-1 on cells (CHO cells stably expressing human PD-1) (human, UniProt Q15116 25-288); assay: flow cytometry on CHO/PD-1 cells
T1 construct: whole, on cells; also called CHO/PD-1; CHO-PD-1
T1 sequence (Q15116 25-288): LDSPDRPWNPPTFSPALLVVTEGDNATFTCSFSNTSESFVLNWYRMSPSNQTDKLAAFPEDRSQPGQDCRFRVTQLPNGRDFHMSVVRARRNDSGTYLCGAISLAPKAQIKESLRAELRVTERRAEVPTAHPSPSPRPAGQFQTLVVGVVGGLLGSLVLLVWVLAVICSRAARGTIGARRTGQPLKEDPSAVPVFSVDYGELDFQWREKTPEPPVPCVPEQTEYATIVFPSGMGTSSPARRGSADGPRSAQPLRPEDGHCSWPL

recombination human PD-1 extracellular protein (Sino Biological Inc.) (human), sequence (Q15116 25-170): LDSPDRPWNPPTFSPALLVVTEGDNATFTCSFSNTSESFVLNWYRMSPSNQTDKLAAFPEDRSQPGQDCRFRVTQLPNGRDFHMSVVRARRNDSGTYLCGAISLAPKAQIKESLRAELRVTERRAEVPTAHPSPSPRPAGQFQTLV

## MK3475+Nivo (Nivolumab and MK3475 added together)
[1]
  antagonizing/inhibiting ratio: 70%

B1: human PDL2-Fc fusion protein (Fc fusion, UniProt Q9BQ51 20-219, looked up, not shown: a dimerising Fc or GST)
chain: LFTVTVPKELYIIEHGSNVTLECNFDTGSHVNLGAITASLQKVENDTSPHRERATLLEEQLPLGKASFHIPQVQVRDEGQYQCIIIYGVAWDYKYLTLKVKASYRKINTHILKVPETDEVELTCQATGYPLAEVSWPNVSVPANTSHSRTPEGLYQVTSVLRLKPPPGRNFSCVFWNTHVRELTLASIDLQSQMEPRTHP
notes: also called biotin-PDL2-Fc; Biotin-PDL2Fc
[2]
  binding result: binds
